Experimental data reported in patent publication US20230140293A1.

Assays:
Assay in all cases: ELISA, gp120 on plate
[1] = target: CH505 w078.15 gp120 (HIV-1)
[2] = target: CH505 w053.16 gp120 (HIV-1)
[3] = target: CH505 M5 gp120 (HIV-1)
[4] = target: CH505 M11 gp120 (HIV-1)
[5] = target: CH505 w020.14 gp120 (HIV-1)
[6] = target: CH505 transmitted/founder (TF) gp120 (HIV-1)
[7] = target: CH505 w030.28 gp120 (HIV-1)
[8] = target: CH505 w053.31 gp120 (HIV-1)
[9] = target: CH505 w078.33 gp120 (HIV-1)
[10] = target: CH505 w030.21 gp120 (HIV-1)
[11] = target: CH505 w100.B6 gp120 (HIV-1)

Substance: CH103 lineage intermediate ancestor IA4 (antibody)
- log AUC [1]: 1.3 log AUC
- log AUC [2]: 0.2 log AUC
- log AUC [3]: 3.8 log AUC
- log AUC [4]: 10.5 log AUC
- log AUC [5]: 8.6 log AUC
- log AUC [6]: 10.1 log AUC
- log AUC [7]: 6.5 log AUC

Substance: CH104 (antibody)
- log AUC [8]: 13.7 log AUC
- log AUC [1]: 10.8 log AUC
- log AUC [2]: 9.9 log AUC
- log AUC [3]: 9 log AUC
- log AUC [4]: 12 log AUC
- log AUC [5]: 10.4 log AUC
- log AUC [6]: 10.4 log AUC
- log AUC [9]: 9 log AUC
- log AUC [10]: 11.3 log AUC
- log AUC [7]: 10.7 log AUC
- log AUC [11]: 11 log AUC
